Series [1] addresses T1, B. amyloliquefaciens subtilisin variant S152 (Ala152 to Ser) (Bacillus amyloliquefaciens, UniProt P00782, A259S).
T1 construct: at various amino acid residues within the mature form of the subtilisin molecule; made in house
The series can be described thus: Kinetics of p-nitroanilide substrate hydrolysis, S152. The series is classed as biochemical. Particulars: Table XII, Ser (S) at position 152; synthetic p-nitroanilide substrate with label as P-1 amino acid. The source says: (§1) Wild-type subtilisin was purified from B. subtilis culture supernatants expressing the B. amyloliquefaciens subtilisin gene (Wells, J.A., et al. (1983) Nucleic Acids Res. 11, 7911-7925) as previously described (Estell, D.A., et al. (1985) J. Biol. Chem. 260, 6518-6521). Details of the synthesis of tetrapeptide substrates having the form succinyl-L-AlaL-AlaL-ProL-[X]-p-nitroanilide (where X is the P1 amino acid) are described by DelMar, E.G., et al. (1979) Anal. Biochem. 99, 316-320. Kinetic parameters, Km(M) and kcat-(s-^1) were measured using a modified progress curve analysis (Estell, D.A., et al. (1985) J. Biol. Chem. 260, 6518-6521). Briefly, plots of rate versus product concentration were fit to the differential form of the rate equation using a non-linear regression algorithm. Errors in kcat and Km for all values reported are less than five percent. The various substrates in Table VIII are ranged in order of decreasing hydrophobicity. Nozaki, Y. (1971), J. Biol. Chem. 246, 2211-2217; Tanford C. (1978) Science 200, 1012).
(§2) The wild type DNA sequence was mutated by the V152/P153 primer (Figure 20, line 4) using the above restriction-purification approach for the new Kpnl site. Other mutant primers (shaded sequences Figure 20; S152, line 5 and G152, line 6) mutated the new Kpnl site away and such mutants were isolated using the restriction-selection procedure as described above for loss of the Kpnl site.
(§3) The results of these substitutions for the above synthetic substrates containing the P-1 amino acids Phe, Leu and Ala are shown in Table XII.

For series [2], the target named is T2, B. amyloliquefaciens subtilisin, wild type (WT, Gly166) (Bacillus amyloliquefaciens, UniProt P00782).
T2 construct: at various amino acid residues within the mature form of the subtilisin molecule; made in house; host or cells: Bacillus subtilis (secreted, culture supernatant)
T2 sequence (P00782 108-382): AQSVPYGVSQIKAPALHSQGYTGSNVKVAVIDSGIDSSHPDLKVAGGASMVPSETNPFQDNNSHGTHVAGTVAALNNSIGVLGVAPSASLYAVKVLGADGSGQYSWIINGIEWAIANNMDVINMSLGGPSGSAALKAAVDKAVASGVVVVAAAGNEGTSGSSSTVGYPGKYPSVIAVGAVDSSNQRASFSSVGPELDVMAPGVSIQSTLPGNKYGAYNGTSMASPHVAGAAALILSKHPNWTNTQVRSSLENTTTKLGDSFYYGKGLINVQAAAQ
The series can be described thus: Kinetics of hydrolysis of succinyl-Ala-Ala-Pro-X-p-nitroanilide substrates (progress curve analysis). The following applies: for kcat/Kmx10^-4: Table XII, Ala (wild type) at position 152, synthetic p-nitroanilide substrate with label as P-1 amino acid. The series is classed as biochemical.
Description: A change in substrate specificity is defined as a difference between the kcat/Km ratio of the precursor carbonyl hydrolase and that of the hydrolase mutant. The kcat/Km ratio is a measure of catalytic efficienty. Carbonyl hydrolase mutants with increased or diminished kcat/Km ratios are described in the examples. Generally, the objective will be to secure a mutant having a greater (numerically large) kcat/Km ratio for a given substrate, thereby enabling the use of the enzyme to more efficiently act on a target substrate. A substantial change in kcat/Km ratio is preferably at least 2-fold increase or decrease. However, smaller increases or decreases in the ratio (e.g., at least 1.5-fold) are also considered substantial. An increase in kcat/Km ratio for one substrate may be accompanied by a reduction in kcat/Km ratio for another substrate. […] Km and kcat are measured in accord with known procedures, as described in EPO Publication No. 0130756 or as described herein.
as §1

Series [3] has as its target T3, B. amyloliquefaciens subtilisin variant G152 (Ala152 to Gly) (Bacillus amyloliquefaciens, UniProt P00782, A259G).
T3 construct: made in house
The series is described as follows: Kinetics of p-nitroanilide substrate hydrolysis, G152. The series is classed as biochemical. The following applies: Table XII, Gly (G) at position 152; synthetic p-nitroanilide substrate with label as P-1 amino acid.
Description: as §1, §2, §3

Substrate in series [4]: C[C@H](NC(=O)CCC(=O)O)C(=O)N[C@@H](C)C(=O)N1CCC[C@H]1C(=O)N[C@@H](Cc1ccccc1)C(=O)Nc1ccc([N+](=O)[O-])cc1
The series can be described thus: Kinetics of p-nitroanilide substrate hydrolysis, L217. In kind it is biochemical, B. amyloliquefaciens. The following applies: other: substrate sAAPFpNa; Km in M.
Description: as §1
Tyr217 has been substituted by all other 19 amino acids. Cassette mutagenesis as described in EPO publication No. 0130756 was used according to the protocol of Figure 22. The EcoRV restriction site was used for restriction-purification of pA217.
Since this position is involved in substrate binding, mutations here effect kinetic parameters of the enzyme. […]

Substrate in series [5]: C[C@H](NC(=O)CCC(=O)O)C(=O)N[C@@H](C)C(=O)N1CCC[C@H]1C(=O)N[C@@H](Cc1ccccc1)C(=O)Nc1ccc([N+](=O)[O-])cc1
The series can be described thus: Kinetics of p-nitroanilide substrate hydrolysis, K166/A222. In kind it is biochemical, B. amyloliquefaciens. Particulars: other: Table XIX.
Description: as §1, with “1012). […]” for “1012).”

Substrate in series [6]: C[C@H](NC(=O)CCC(=O)O)C(=O)N[C@@H](C)C(=O)N1CCC[C@H]1C(=O)N[C@@H](Cc1ccccc1)C(=O)Nc1ccc([N+](=O)[O-])cc1
The series can be described thus: Kinetics of p-nitroanilide substrate hydrolysis, A222. The series is classed as biochemical, B. amyloliquefaciens. The following applies: other: Table XIX.
Description: as §1
Although mutations at position 222 improve oxidation stability they also tend to increase the Km. In this case the A222 mutation was combined with the K166 mutation to give an enzyme with kcat and Km intermediate between the two parent enzymes.

Substrate in series [7]: C[C@H](NC(=O)[C@@H]1CCCN1C(=O)[C@H](C)NC(=O)[C@H](Cc1ccccc1)NC(=O)CCC(=O)O)C(=O)Nc1ccc([N+](=O)[O-])cc1
The series is described as follows: Kinetics of p-nitroanilide substrate hydrolysis, H104. The series is classed as biochemical, B. amyloliquefaciens. Particulars: other: Table XI.
Description: as §1
(§4) Tyr104 has been substituted with Ala, His, Leu, Met and Ser. The method used was a modification of the site directed mutagenesis method. According to the protocol of Figure 19, a primer (shaded in line 4) introduced a unique Hindlll site and a frame shift mutation at codon 104. Restriction-purification for the unique Hindlll site facilitated the isolation of the mutant sequence. Restriction-selection against this Hindlll site using pimers in line 5 was used to obtain position 104 mutants.
(§5) The substrates in Table XI were used to analyze the substrate specificity of these mutants.

Substrate in series [8]: C[C@H](NC(=O)CCC(=O)O)C(=O)N[C@@H](C)C(=O)N1CCC[C@H]1C(=O)N[C@@H](C)C(=O)Nc1ccc([N+](=O)[O-])cc1
The description is as above. In kind it is biochemical, B. amyloliquefaciens. The following applies: other: Table XI.
Description: as §1, §4, §5

Substrate in series [9]: C[C@H](NC(=O)[C@H](Cc1ccccc1)NC(=O)CCC(=O)O)C(=O)N1CCC[C@H]1C(=O)N[C@@H](Cc1ccccc1)C(=O)Nc1ccc([N+](=O)[O-])cc1
Described as above. In kind it is biochemical, B. amyloliquefaciens. The following applies: other: Table XI.
Description: as §1, §4, §5

Substrate in series [10]: C[C@H](NC(=O)CCC(=O)O)C(=O)N[C@@H](C)C(=O)N1CCC[C@H]1C(=O)N[C@@H](Cc1ccccc1)C(=O)Nc1ccc([N+](=O)[O-])cc1
The description is as above. The series is classed as biochemical, B. amyloliquefaciens. The following applies: other: Table XI.
Description: as §1, §4, §5

Substrate in series [11]: C[C@H](NC(=O)CCC(=O)O)C(=O)N[C@@H](C)C(=O)N1CCC[C@H]1C(=O)N[C@@H](Cc1ccccc1)C(=O)Nc1ccc([N+](=O)[O-])cc1
The series is described as follows: Kinetics of p-nitroanilide substrate hydrolysis, deletion mutant. The series is classed as biochemical, B. amyloliquefaciens. The following applies: other: Table V; substrate not given; Km in M.
Description: The effect of deletion of residues 161 through 164 has been shown by comparing the activity of the wild type (WT) enzyme with a mutant enzyme containing this deletion as well as multiple substitutions (i.e., S153/S156/A158/G159/S160/0161-164/1165/S166/A169/R170). This produced the following results:
as §1

Setting [12] is: Table VIII, substrate succinyl-L-AlaL-AlaL-ProL-[X]-p-nitroanilide, X = label (P1 amino acid).

Changes are numbered by the printed parent chain. Names and notes keep the numbering of the source. *1 amine or outer side, *2 acyl side, *3 side chain or, on linkers, in order; H or OH if unused. Where a SMILES comes first, the peptide text is derived from it. The star is where a group is joined. pNA = O=[N+]([O-])c1ccc(N*)cc1; Suc = O=C(CCC(=O)[*:2])[*:1] Where only a bound is given, the exact number is not on record here.

T3 sequence (P00782 108-382 A259G): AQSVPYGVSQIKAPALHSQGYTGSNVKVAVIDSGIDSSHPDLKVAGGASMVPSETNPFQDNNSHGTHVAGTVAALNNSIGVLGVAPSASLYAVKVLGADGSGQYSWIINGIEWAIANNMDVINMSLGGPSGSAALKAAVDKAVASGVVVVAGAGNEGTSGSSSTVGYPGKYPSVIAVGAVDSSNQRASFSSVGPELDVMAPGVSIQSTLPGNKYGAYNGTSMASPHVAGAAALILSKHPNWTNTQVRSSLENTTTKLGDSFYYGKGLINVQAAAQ
T1 sequence (P00782 108-382 A259S): as the sequence (P00782 108-382 A259G) above, with G152S counted along it

For `CC(C)C[C@H](NC(=O)[C@@H]1CCCN1C(=O)[C@H](C)NC(=O)[C@H](C)NC(=O)CCC(=O)O)C(=O)Nc1ccc([N+](=O)[O-])cc1` [Leu] (Suc-AAPL-pNA), the “kcat/Kmx10^-4” value was 0.5 in series [1], 10.0 in [2] and 0.4 in series [3].
For `C[C@H](NC(=O)CCC(=O)O)C(=O)N[C@@H](C)C(=O)N1CCC[C@H]1C(=O)N[C@@H](Cc1ccccc1)C(=O)Nc1ccc([N+](=O)[O-])cc1` [Phe] (Suc-AAPF-pNA), the “kcat/Kmx10^-4” value was found to be 1.0 in [1], 40.0 in series [2] and 0.2 in series [3]. The kcat came out at 50 S^-1 in [2] (setting [12]) and 50.00 s-^1 in series [2] (Table XIII, Glu156/Gly166 (WT), synthetic substrate with label as P-1 residue).
Take `C[C@H](NC(=O)CCC(=O)O)C(=O)N[C@@H](C)C(=O)N1CCC[C@H]1C(=O)N[C@@H](CCC(=O)O)C(=O)Nc1ccc([N+](=O)[O-])cc1` [Glu] (Suc-AAPE-pNA): the kcat in [2] (setting [12]) came out at 0.54 S^-1.
With `C[C@H](NC(=O)CCC(=O)O)C(=O)N[C@@H](C)C(=O)N1CCC[C@H]1C(=O)N[C@@H](C)C(=O)Nc1ccc([N+](=O)[O-])cc1` [Ala] (Suc-AAPA-pNA), the entries for the “kcat/Kmx10^-4” value in series [1], in series [2] and in series [3] were 0.2, 1.0 and less than 0.04, respectively.

B1: B. amyloliquefaciens subtilisin variant L217 (Tyr217 to Leu) (Bacillus amyloliquefaciens; Y324L) (protein)
chain: T2 sequence (P00782 108-382) with Y217L
notes: at various amino acid residues within the mature form of the subtilisin molecule; made in house
For orientation: Km means the substrate concentration at which the rate is half of its maximum. Take B1: the Km in [4] turned out to be 470 µM.

B2: B. amyloliquefaciens subtilisin variant K166/A222 (Bacillus amyloliquefaciens; G273K/M329A) (protein)
chain: T2 sequence (P00782 108-382) with G166K, M222A
notes: as for B1
B2: in series [5], the Km turned out to be 200 µM and the kcat is 29 s-^1.

B3: B. amyloliquefaciens subtilisin variant A222 (Met222 to Ala) (Bacillus amyloliquefaciens; M329A) (protein)
chain: T2 sequence (P00782 108-382) with M222A
notes: as for B1
As for B3, in series [6], the Km is 990 µM and the kcat was 42 s-^1.

B4: B. amyloliquefaciens subtilisin variant H104 (Tyr104 to His) (Bacillus amyloliquefaciens; Y211H) (protein)
chain: T2 sequence (P00782 108-382) with Y104H
notes: as for B1
The term kcat/Km denotes the second-order rate constant that governs catalysis at low substrate concentration. With B4, the Km in series [7] was 150 µM; in series [8], 1900 µM; in series [9], 410 µM; in [10], 710 µM. For the same molecule, the kcat is on record as 2.4 s-^1 in series [7], 2.0 s-^1 in series [8], 38.0 s-^1 in [9] and 22.0 s-^1 in series [10]. The kcat/Km in series [7] is 16000 M⁻¹ s⁻¹; in series [8], 1000 M⁻¹ s⁻¹; in series [9], 91000 M⁻¹ s⁻¹; in [10], 31000 M⁻¹ s⁻¹.

B5: B. amyloliquefaciens subtilisin deletion mutant S153/S156/A158/G159/S160/Δ161-164/I165/S166/A169/R170 (Bacillus amyloliquefaciens; … (protein)
chain: AQSVPYGVSQIKAPALHSQGYTGSNVKVAVIDSGIDSSHPDLKVAGGASMVPSETNPFQDNNSHGTHVAGTVAALNNSIGVLGVAPSASLYAVKVLGADGSGQYSWIINGIEWAIANNMDVINMSLGGPSGSAALKAAVDKAVASGVVVVAASGNSGAGSISYPARYPSVIAVGAVDSSNQRASFSSVGPELDVMAPGVSIQSTLPGNKYGAYNGTSMASPHVAGAAALILSKHPNWTNTQVRSSLENTTTKLGDSFYYGKGLINVQAAAQ
notes: as for B1
For B5, the Km in series [11] turned out to be 5 µM.

(Values after patent EP0251446B1, “Non-human Carbonyl hydrolase mutants, DNA sequences and vectors encoding same and hosts transformed with said vectors” (GENENCOR INTERNATIONAL, INC., priority 1986, dated 1988).)
